Data as given in article PMC7039212 (The Journal of Cell Biology, 2019).
Each block holds one molecule with its values, some of them ahead of it.

Columns and labels:
Assay in all cases: MST
Cy5-G-actin = Cy5-G-actin (UniProt P68135)
GFP-CD2AP-1–475 aa = target: T1, GFP-CD2AP-1–475 aa (human, UniProt Q9Y5K6 1-475)
T1 sequence (looked up): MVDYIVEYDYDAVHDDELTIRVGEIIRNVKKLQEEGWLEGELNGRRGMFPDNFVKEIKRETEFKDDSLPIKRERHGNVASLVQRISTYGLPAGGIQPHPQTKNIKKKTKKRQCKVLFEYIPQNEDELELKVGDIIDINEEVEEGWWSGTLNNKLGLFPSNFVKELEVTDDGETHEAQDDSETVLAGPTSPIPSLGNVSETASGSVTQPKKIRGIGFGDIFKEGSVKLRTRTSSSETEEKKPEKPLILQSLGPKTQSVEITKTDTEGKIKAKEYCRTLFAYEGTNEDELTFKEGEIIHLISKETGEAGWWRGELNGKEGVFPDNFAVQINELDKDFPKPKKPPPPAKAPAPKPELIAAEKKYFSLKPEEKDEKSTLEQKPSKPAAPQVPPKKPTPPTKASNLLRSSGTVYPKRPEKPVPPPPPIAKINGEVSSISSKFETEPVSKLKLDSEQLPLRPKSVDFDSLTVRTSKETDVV

GFP-CD2AP-1-335 aa = target: T2, GFP-CD2AP-1-335 aa (human, UniProt Q9Y5K6 1-335)
T2 sequence (looked up): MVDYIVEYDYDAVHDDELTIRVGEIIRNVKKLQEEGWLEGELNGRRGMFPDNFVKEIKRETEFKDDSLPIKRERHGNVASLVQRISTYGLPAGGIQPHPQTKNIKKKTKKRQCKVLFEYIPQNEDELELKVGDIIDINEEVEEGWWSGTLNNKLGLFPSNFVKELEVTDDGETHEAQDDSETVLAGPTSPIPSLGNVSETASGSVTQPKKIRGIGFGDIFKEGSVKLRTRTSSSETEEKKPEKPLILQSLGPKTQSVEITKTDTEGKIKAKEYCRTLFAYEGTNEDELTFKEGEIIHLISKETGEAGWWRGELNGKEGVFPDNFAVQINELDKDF

- Kd (Cy5-G-actin): 150 nM
Molecule: profilin (from UniProt P07737 1-140) (natural protein)

- Kd (GFP-CD2AP-1–475 aa): 940 nM
- Kd (GFP-CD2AP-1-335 aa): 350 nM
B1: PI3K p85α 1–315 aa (domain or fragment, human, UniProt P27986 1-315, looked up)
chain: MSAEGYQYRALYDYKKEREEDIDLHLGDILTVNKGSLVALGFSDGQEARPEEIGWLNGYNETTGERGDFPGTYVEYIGRKKISPPTPKPRPPRPLPVAPGSSKTEADVEQQALTLPDLAEQFAPPDIAPPLLIKLVEAIEKKGLECSTLYRTQSSSNLAELRQLLDCDTPSVDLEMIDVHVLADAFKRYLLDLPNPVIPAAVYSEMISLAPEVQSSEEYIQLLKKLIRSPSIPHQYWLTLQYLLKHFFKLSQTSSKNLLNARVLSEIFSPMLFRFSAASSDNTENLIKVIEILISTEWNERQPAPALPPKPPKPT
